Results from the nanobody polyreactivity screen of Harvey et al. (2022).

Experiment: yeast display, Sf9 membrane polyspecificity reagent, FACS + sequencing; frameworks hold sequencing errors
Outline: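 Polyreactivity labels are assigned by the sorting gate from which each nanobody was recovered. The gates were low and high (top ~1%), set on anti-HA fluorescence for expression and streptavidin fluorescence for reagent binding. Before sorting, galactose-induced (36–48 hours) yeast display cells were stained for 1 hour at 4 °C with 10% biotinylated, detergent-solubilized Sf9 membrane reagent.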

Sequence	polyreactivity (PSR sort gate)
QVQRVESGGGLVQAGGSLRLSCAASGRIFWYYAMGWYRQAPGTERQLVAAITSGGRTNFADSVKGRFTISSDNAKNSVYLQMNSLKPEDTAVYYCAAGYYNYLYRLRDQDFDYWGQGTQVTVSS	high polyreactivity
QVQRVESGGGLVQAGGSLRLSCAASGRISSWNAMGWYRQAPGKERELVATISRRGGSTYYADSVKGRFTISRDNAKNTVYFQMNSLKQEDTAVYYCAKSSWTYGAYNYWGQGTQVTVSS	high polyreactivity
QVQRVESGGGLVQAGGSLRLSCAASGRTFDGYAMGWYRQAPGKDRELVAAISKRGGSTYYADSVKGRFTISRDNAKNTVYLQMHSLKPEDTAVYYCNTRYFGDQTWVGGDSWGQGTQVTVSS	high polyreactivity
QVQRVESGGGLVQAGGSLRLSCAASGRTFRSYAMGWYRQAPGKERQFVAAISRSGASTRYADSVKGRFTISRDNAKNTVYFQMNSLKPEDTAVYYCAAVWPDVRGYDYWGQGTQVTVSS	high polyreactivity
QVQRVESGGGLVQAGGSLRLSCAASGSIFPIYAMGWYRQAPGKERELVAGITWSGGSTYYADSVKGRFTISRDNAKNTVYLQMNSLKPEDTAVYYCAAERWHPYDYWGQGTQVTVSS	low polyreactivity
QVQRVESGGGLVQAGGSLRLSCAASGSIFPYYAMGWYRQAPGKETELVATITYRGGSTNYADSVKGRFTISRDNAKNTVYLQMNSLKPEDTAVYSCAAYGYVLASPYPYSFVKLGYCGQGTQVTVSS	low polyreactivity
QVQRVESGGGLVQAGGSLRLSCAASGSIFYSYAMGWYRQAPGKARELVATISWSGGRTNYADSVQGRFTISRDNAKNTVYLQMNSLKPEDTAVYYCAADIPPWGGDYWGQGTQVTVSS	low polyreactivity
QVQRVESGGGLVQAGGSLRLSCAASGSIRGYAMGWYRQAPVKERELVAAISWRGGSTYYADSVKGRFTISRDNAKNTVYLQMNSLKPEDTAVYYCATKGYPHVSTWMDSWGQGTQVTVSS	low polyreactivity
QVQRVESGGGLVQAGGSLRLSCAASGSTFPPYGMGWSRQAPGKERELVAAITWRGGRTYYADSVKGRFTISRDNAKNTVYLQMNSLKPEDTAVYYCAASYGPRTGYATYRYASSRYNYWGQGTQVTVSS	high polyreactivity
QVQRVESGGGLVQAGGSLRLSCAASGSTFVNYVMGLYRQAPGKERELVAAISWSGGRTYYADSMKGRFTISRDNAKNTVYLQMNSLKPEDTAVYYCNAVYAGFLRVRYDYWGQGTQVTVSS	high polyreactivity
QVQRVESGGGLVQAGGSLRLSCAASGSTFYTNAMGWYRQAPGKERELVASITGGGSTYYADSVKGRFTISRDNAKNTVYLQMNSLKPEDTAVYYCAADNFGGGWEFDSWGQGTQVTVSS	low polyreactivity
QVQRVESGGGLVQAGGSLRLSCAASGSTLRYYAMGWYRQAPGKERELVAGIRYRGGSTSYADSVKGRFTISRDNAKNTVYLQMNSLKPEDTAVYYCATGIYRARTSSFRMGYWGQGTQVTVSS	low polyreactivity
QVQRVESGGGLVQAGGSLRLSCAASGTIFYHNAMGWYRQAPGIERELVAAITGSGGSTYYADSVKGRFTISRDNAKNTVYLQMNSLKPEDTAVYYCAADGYTKWRISWGYDYWGQGTQVTVCS	low polyreactivity
QVQRVESGGGLVQAGGSLRLSCAGCGRIFHYYAMGWYRQAPGKEMELVAAITSSGGSTYYADSVKGRFTISRDHPKNTVYLQMNSLKPEDTAVYYCAAGLIVGRFLRYDYWGQGTQVTVSS	high polyreactivity
QVQRVESGGGLVQAGGSLRLSSAASGSTFQEYAMGWYSQAPGKERELVASIRWSGGRTYYADSVKGRFTISRDQAKNTVELQMKSLKPEDTAVYYCNKDYYITLHESDGNGGEMDYWGQGTQVTVSS	low polyreactivity
QVQRVESGGGLVQAGVSLRLSCAASGITFVPYAMGWYRQAPGKERELVAAISSSGGSTYYADSVKGRFTISRDNAKNTVYLQMNSLKPEDTAVYFCNVPTHSYIGMDYWGQGTQVTVSS	low polyreactivity
QVQRVESGGGLVQEAGSLRLSCAASGSILGINVMGWYRHDHGKQRDLVAAISRSGGTTYYADSVKGRFTISRDNGKNTVYLQMNSLKPEDTAVYSCAVYNRPYKEYGYNYCGQGTQVTVSS	high polyreactivity
QVQRVESGRGLVQAGGRLRLSCAASGFIFDRNVMGLYRQAPGNERELVAAISSSGGSTYYADSVKGRFTISRDNAKNTVYLQMNSLKPEDTAVYYCNRLAYRNMDYWGQGTQVTVSS	high polyreactivity
QVQRVESGRGLVQAGGSLRLRCAASGNIFPWSAMGWSRQAPGKERELVAAITSGGGSTYYGDSVKGRFTISRDNAKNTVYLQMNRLKPEDTAVYYCNAESAFVSYYSEDYDYWGQGTQVTVSS	low polyreactivity
QVQRVESGVGLVQAGGSLRLRCAASGSIFQSYAMGWYRHAPGKERELVAAITERGGSTYYADSVKGRFTISRDNAKNTVYLQMNSLKPEDTAVYYCAAKAVGLGKSWRGDDYWGQRTQVTVSS	low polyreactivity

Sequence	polyreactivity (PSR sort gate)
QVQRVESRGGLVQAGGSLRLSCAASGSTFAVYALGWYRQAPGKERELVAAISQSGGSTNYADSVKGRFTISRDNAKNTVYLQMNSLKPEDTAVYYCNVDVSRSWAQPYTYDYWGQGTQVTVSS	low polyreactivity
QVQRVESWGGLVQAGGSLRLSCAASGFTFSDNAMGWYRQAPGKERELVAAISRRGGSTYYADSVKGRFTISRDNAKNTVYLQMNSLKPEVTAVYYCAAVRASSKVHTRTYDYWGQGTQVTVSS	high polyreactivity
QVQRVETGGGLVQAGGSLRLSSAASGSTLPGNTMGWYRQAPGKERELVAAISKSGGTTYYADSVKGRFTISRDNAKNTVYLQMNCLKPEDTAVYYCAAKPWVWVYARYGKHPSYDYWGQGTQVTVSS	high polyreactivity
QVQRVETGGVLVQAGGSLRLSCAASGRIFINDMGWYRQAHGKEMELVAAIRSDGSTNYADSVKGRFTFSRDTAKNTVYLQMNSLKPEDTAVYYCNVDGYYLFVRGYEYWGQGTQVTVSS	low polyreactivity
QVQVVESGGGIVQAGGSHRLSCAAYGSIFLPYAMGWYRQAPGKDRELVAAITRGGDSTYADSVKGRFTISRDNAMYTVDLQMNSLKRDDTAVFYCAAGAGFESDYWGQGTQVTVAS	low polyreactivity
QVQVVESGGGLVQAGGRLRLSCAASGRIFYWYAMGWSRQAPGKERELVADINHGDTSTYYADSVKGRFTISRDKAKNTVYLQMNSLKPEDTAVYYCNVRSYVYSRWYQSTWGYYYWGQGTQVTVSS	high polyreactivity
QVQVVESGGGLVQAGGSLLLICAASGRTFWPNAMGWYRAAPGKERELVAAINWGGGSTYYADSVKVRFTISRDNAKNAVYLQKNSLKPEDTAVYYCAKSLVPWWYKVEYDYWGQGTQVTVSS	low polyreactivity
QVQVVESGGGLVQAGGSLLLSCAASGSTFEYNAMGWYRQAPGKERELVASSTNYADSVKGRFTISRDNAKNTVYLQMNSLKPEDTAVYYCARELGVNRKHDYWGQGTQVTVSS	low polyreactivity
QVQVVESGGGLVQAGGSLRLSCAASGFIFFTYAKGWYRPAPGKERELVADISSRGGSTYYADSVKGRFTISRDNAKNTVYLQMNSLKPEDTAVYYCARTRFWLRYRLFDYWGQGTQVTVSS	low polyreactivity
QVQVVESGGGLVQAGGSLRLSCAASGFIFLRYDMGWYRQAPGKERELVAAINGNGGSTYYADSVKGRFTISRDNAKNTFYLQMNSLKPEDTAVYYCNARRRTYARNYGYWGHGTQVTVSS	high polyreactivity
QVQVVESGGGLVQAGGSLRLSCAASGRIFSHNAMGWYRQAPGNEWELVAGISSGGGTTYADSVKGRFTLSRDNAKNTVYLQMNSLKPEDTAVYYCNKQDQPVGRSGYPYGYDYWGQGTQVTVSS	low polyreactivity
QVQVVESGGGLVQAGGSLRLSCAASGRTFDWYLMGWYRQAPGKERELVASIRGTGSTYYADSVKGRFTISRDNAKNTVYLQMNSLKAEDTAVYYCAARPGFLYSKYNYWGQGTQVTVSS	high polyreactivity
QVQVVESGGGLVQAGGSLRLSCAASGRTYRSNAMGWYRQAPGKERELVAAIRTSGGSTYYADSVKGRFTISRDNAKNTVYLQMNSLKPEDTAVYYCNAELRDLEFDYWGQGTQVTVSS	low polyreactivity
QVQVVESGGGLVQAGGSLRLSCAASGSICHVNAMGWYRQAPGKERELVADISKRGASTYYADSVKGRFTISRDNAKNTVYLQMNSLKPEDTAVYYCAARVVTPRRQWYTYDYWGQGTQVSVSS	high polyreactivity
QVQVVESGGGLVQAGGSLRLSCAASGSIFATYAMGWYRQAPGKERELVAAITSSDGSTNYADSVKGRFTISRDNAKNTVYLQMNSLKPEDTAVYYCATDAPDRTDSDSGFDAGYDYWGQGTQVTLSS	low polyreactivity
QVQVVESGGGLVQAGGSLRLSCAASGSISSWYALGWYRPAAGYERELVADISSGVNTYYADSVKGRFTISRDNAKNTVYLQMNSLKTEDTAVYYCNAESLTFADPFYNYTYDYWGQGTQVTVSS	low polyreactivity
QVQVVESGGGLVQAGGSLRLSCAASGSTFKNYAMGWYRQAPGKERELVAAIHGRGGSTYYADSVKGRFTISRDNAKNTVYLQMNSLKPEDTAVYYCAASRVHSYNPGYPRYYYWGQGTQVNVSS	high polyreactivity
QVQVVESGGGLVQAGGSLRLSCAAYGRTISAYAMGWYRQAPVKERELVARITRYGGPTYYADSVKGRFTISRDYAKYTDYLQMNSLKAEVTAVDYCAARKYHLRTAYVYWGQGTEVTVSS	low polyreactivity
QVQVVESGGGLVQAGGSLRLSCAGSGSIFRVYAMGWYRQAPGKVREWVASISRRGGSTYYADSVKGRFTISRDNAKNTVYLQMNSLKPEDTAVDYCAAEFVIGGHGYDYWGQGTQVTVSS	high polyreactivity
QVQVVESGGGLVQAGGSLRLSCGASGSTFQGNAMGWYRPAPGKDRALDAAISRSGGSTYADSVKGRFTISRDNAKNTVYLQMNSLKPADTAVYYCAADALYWIGRMDYWGQGTQVTVSS	low polyreactivity
